This note sets out measurements from patent US20250206818A1 (AGENUS, published 2025).

One experiment has as its target T1, recombinant human LAG-3 (human, UniProt P18627 23-450, limits assumed).
T1 sequence (looked up): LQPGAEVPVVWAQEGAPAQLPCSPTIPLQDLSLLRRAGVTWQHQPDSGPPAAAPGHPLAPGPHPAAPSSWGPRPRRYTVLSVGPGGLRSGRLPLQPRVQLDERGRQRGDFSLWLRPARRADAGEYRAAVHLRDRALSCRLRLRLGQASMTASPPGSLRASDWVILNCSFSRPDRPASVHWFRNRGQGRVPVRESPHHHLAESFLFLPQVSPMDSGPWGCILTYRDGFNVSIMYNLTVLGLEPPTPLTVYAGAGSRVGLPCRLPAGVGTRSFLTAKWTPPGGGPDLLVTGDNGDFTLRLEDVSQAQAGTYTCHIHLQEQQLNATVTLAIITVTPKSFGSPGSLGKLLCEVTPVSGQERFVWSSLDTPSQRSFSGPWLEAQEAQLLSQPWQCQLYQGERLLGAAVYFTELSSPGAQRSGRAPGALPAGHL
Put plainly: surface plasmon resonance (data not shown).

In experiment [1] the target is T2, human LAG-3 expressed on cells (human, UniProt P18627 23-525).
T2 construct: whole, on cells; also called CD223
T2 sequence (looked up): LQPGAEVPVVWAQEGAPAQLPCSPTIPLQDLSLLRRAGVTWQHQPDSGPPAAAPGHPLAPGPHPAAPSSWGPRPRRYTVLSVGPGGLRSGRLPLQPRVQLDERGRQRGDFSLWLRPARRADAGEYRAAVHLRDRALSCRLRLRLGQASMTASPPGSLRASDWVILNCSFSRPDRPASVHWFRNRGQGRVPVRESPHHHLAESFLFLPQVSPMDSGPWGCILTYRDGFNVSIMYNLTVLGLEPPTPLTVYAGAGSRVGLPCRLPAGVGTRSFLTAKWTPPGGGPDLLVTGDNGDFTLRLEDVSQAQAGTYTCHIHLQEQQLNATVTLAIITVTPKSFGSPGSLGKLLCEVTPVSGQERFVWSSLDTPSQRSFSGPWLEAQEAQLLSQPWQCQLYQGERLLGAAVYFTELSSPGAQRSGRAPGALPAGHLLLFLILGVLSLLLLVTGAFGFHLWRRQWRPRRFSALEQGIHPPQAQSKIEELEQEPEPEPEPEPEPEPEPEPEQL
The experiment is described as follows: flow cytometry, 10 ug/ml antibody on SEA-activated primary human CD4+ T cells (FIG. 6A).

Experiment [2] has as its target T2, human LAG-3 expressed on cells. The experiment is described as follows: flow cytometry, Fab periplasmic extract on Jurkat cells expressing human LAG-3 (FIGS. 1A-1C). As to the method:
The anti-LAG-3 Fabs from periplasmic extracts were tested for binding to LAG-3-expressing cells using flow cytometry. Briefly, wild type and human LAG-3-expressing Jurkat cells were plated at 2×10⁵ cells/well in sample buffer (PBS (Gibco, Cat #10010-015)+0.5% FBS (Gibco, Cat #10270-106)) in 96-well U-bottom plates (Sarstedt). 22 μl of anti-LAG-3 Fab periplasmic extract and 83 μl of diluted anti-c-myc antibody (Gentaur, Clone #9E10, Cat #04-cmyc-9E10) were incubated for 30 minutes at room temperature. 100 μl of the periplasmic extract/anti-c-myc mixture was added to cells and then incubated for one hour on ice. Cells were washed three times and then incubated with a goat anti-mouse APC (BD Biosciences, Cat #550826) for 30 minutes on ice. Cells were washed three times and then analyzed with a FACS machine (BD Accuri6).

A further experiment concerns the target T3, human LAG-3 (human, UniProt P18627 23-450, limits assumed).
T3 construct: Selections used human LAG-3-Fc, human LAG-3-6His, a 30 aa LAG-3 peptide and/or cells with cynomolgus LAG-3; also called CD223
T3 sequence (looked up): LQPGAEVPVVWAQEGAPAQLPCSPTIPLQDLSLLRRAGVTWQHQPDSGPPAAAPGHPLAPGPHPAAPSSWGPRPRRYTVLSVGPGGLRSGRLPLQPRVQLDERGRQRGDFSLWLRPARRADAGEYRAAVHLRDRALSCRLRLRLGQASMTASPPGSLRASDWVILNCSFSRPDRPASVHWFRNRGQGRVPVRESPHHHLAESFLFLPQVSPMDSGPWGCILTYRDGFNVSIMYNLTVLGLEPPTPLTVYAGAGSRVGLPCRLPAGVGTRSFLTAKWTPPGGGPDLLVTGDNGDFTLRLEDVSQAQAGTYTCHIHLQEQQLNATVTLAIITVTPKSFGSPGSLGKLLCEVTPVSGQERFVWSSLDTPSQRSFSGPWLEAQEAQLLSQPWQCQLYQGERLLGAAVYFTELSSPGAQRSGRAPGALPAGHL
The experiment is described as follows: Fab phage display selection; periplasmic extracts screened by ELISA or flow cytometry.

B1: P13B02-06 (antibody, IgG1, V domains shown)
VH: QVQLVQSGAEVKKPGASVKVSCKASGFNIKDTYIHWVRQAPGQGLEWMGEIDPANDNTKYDPKFQGRVTITADTSTSTVYMELSSLRSEDTAVYYCATYYYRYDVGGFDYWGQGTLVTVSS
VL: EIVLTQSPGTLSLSPGERATLSCSVSSSISSSNLHWYQQKPGQAPRLLIYGTSNLASGIPDRFSGSGSGTDFTLTISRLEPEDFAVYYCQQWSSYPFTFGQGTKVEIK
notes: Humanized; generated as full length IgG1; also called P13B02-06 (IgG1)
For B1, the binding result (with recombinant human LAG-3; in experiment [1]) was “binds” throughout.

B2: P13B02-26 (antibody, IgG1, V domains shown)
VH: QVQMKQSGAEVVKPGASVKVSCTASGFNIKDTYIHWVRQAPGQGLEWIGEIDPANDNTKYDPKFQGRVTITADTSSNTVYLQLSSLRSEDTAVYYCATYYYKYDVGGFDYWGQGTLVTVSS
VL: EILLTQSPGTLSLSPGERATLTCSVSSSISSSNLHWFQQKPGQSPRLWIYGTSNLASGVPDRFSGSGSGTSYTLTISRLEPEDFAVYYCQQWSSYPFTFGQGTKVEIK
notes: Humanized; VH is H4_R98K; generated as full length IgG1; also called P13B02-26 (IgG1)
B2: the binding result (with recombinant human LAG-3; in experiment [1]) was “binds” throughout.

B3: P13B02-16 (antibody, IgG1, V domains shown)
VH: QVQMKQSGAEVKKPGASVKVSCTASGFNIKDTYIHWVRQAPGQGLEWMGEIDPANDNTKYDPKFQGRVTITADTSSNTVYMELSSLRSEDTAVYYCATYYYRYDVGGFDYWGQGTLVTVSS
VL: EIVLTQSPGTLSLSPGERATLSCSVSSSISSSNLHWYQQKPGQAPRLLIYGTSNLASGIPDRFSGSGSGTDFTLTISRLEPEDFAVYYCQQWSSYPFTFGQGTKVEIK
notes: Humanized; generated as full length IgG1; also called P13B02-16 (IgG1)
Take B3: the binding result (with recombinant human LAG-3; in experiment [1]) was “binds” each time.

B4: P13B02-27 (antibody, IgG1, V domains shown)
VH: QVQMKQSGAEVVKPGASVKVSCTASGFNIKDTYIHWVRQAPGQGLEWIGEIDPANDNTKYDPKFQGRVTITADTSSNTVYLQLSSLRSEDTAVYYCATYYYRYEVGGFDYWGQGTLVTVSS
VL: EILLTQSPGTLSLSPGERATLTCSVSSSISSSNLHWFQQKPGQSPRLWIYGTSNLASGVPDRFSGSGSGTSYTLTISRLEPEDFAVYYCQQWSSYPFTFGQGTKVEIK
notes: Humanized; VH is H4_D100E; generated as full length IgG1; also called P13B02-27 (IgG1)
Regarding B4, the binding result (with recombinant human LAG-3; in experiment [1]) was “binds” in each case.

B5: P13B02-25 (antibody, IgG1, V domains shown)
VH: QVQMKQSGAEVVKPGASVKVSCTASGFNIKDTYIHWVRQAPGQGLEWIGEIDPANDNTKYDPKFQGRVTITADTSSNTVYLQLSSLRSEDTAVYYCATYYYRYDVGGFDYWGQGTLVTVSS
VL: EILLTQSPGTLSLSPGERATLTCSVSSSISSSNLHWFQQKPGQSPRLWIYGTSNLASGVPDRFSGSGSGTSYTLTISRLEPEDFAVYYCQQWSSYPFTFGQGTKVEIK
notes: Humanized; generated as full length IgG1; also called P13B02-25 (IgG1)
With B5, the binding result (with recombinant human LAG-3; in experiment [1]) was “binds” each time.

B6: P13B02-30 (IgG4) (antibody, V domains shown)
VH: QVQMVQSGAEVKKPGASVKVSCKASGFNIKDTYIHWVRQAPGQGLEWMGEIDPANDNTKYDPKFQGRVTITADTSTSTVYMELSSLRSEDTAVYYCATYYYKYDVGGFDYWGQGTLVTVSS
VL: EIVLTQSPGTLSLSPGERATLSCSVSSSISSSNLHWYQQKPGQAPRLLIYGTSNLASGIPDRFSGSGSGTDFTLTISRLEPEDFAVYYCQQWSSYPFTFGQGTKVEIK
As to B6, in experiment [1], the binding result is given as “binds”.

B7: P13B02-30 (IgG1 G1m17 N297A) (antibody, V domains shown)
VH: QVQMVQSGAEVKKPGASVKVSCKASGFNIKDTYIHWVRQAPGQGLEWMGEIDPANDNTKYDPKFQGRVTITADTSTSTVYMELSSLRSEDTAVYYCATYYYKYDVGGFDYWGQGTLVTVSS
VL: EIVLTQSPGTLSLSPGERATLSCSVSSSISSSNLHWYQQKPGQAPRLLIYGTSNLASGIPDRFSGSGSGTDFTLTISRLEPEDFAVYYCQQWSSYPFTFGQGTKVEIK
notes: Full length antibody containing IgG1 G1m17 allotype with a N297A mutation (EU)
Turning to B7, the binding result in experiment [1] is “binds”.

B8: P13B02-07 (antibody, IgG1, V domains shown)
VH: QVQLVQSGAEVKKPGASVKVSCKASGFNIKDTYIHWVRQAPGQGLEWMGEIDPANDNTKYDPKFQGRVTITADTSTSTVYMELSSLRSEDTAVYYCATYYYRYDVGGFDYWGQGTLVTVSS
VL: EIVLTQSPGTLSLSPGERATLSCSVSSSISSSNLHWYQQKPGQAPRLLIYGTSNLASGIPDRFSGSGSGTSYTLTISRLEPEDFAVYYCQQWSSYPFTFGQGTKVEIK
notes: Humanized; generated as full length IgG1; also called P13B02-07 (IgG1)
For B8, the binding result (in the experiment with recombinant human LAG-3; in experiment [1]) was “binds” each time.

B9: full length chimeric anti-LAG-3 antibody P13B02 (antibody, V domains shown)
VH: QVQMKQSGAELVKPGASVKLSCTASGFNIKDTYIHWVKQRPEQGLEWIGEIDPANDNTKYDPKFQGKATITADTSSNTAYLQLSSLTSEDTAVYYCATYYYRYDVGGFDYWGQGTTLTVS
VL: EILLTQSPALMAASPGEKVTITCSVSSSISSSNLHWFQQKSGTSPKLWIYGTSNLASGVPVRFSGSGSGTSYSLTISSMEAEDAATYYCQQWSSYPFTFGSGTKLEIK
notes: Murine variable regions on human heavy (Ch1, Ch2, Ch3) and light (CL) constant regions; full-length IgG1 chimeric antibody; also called chimeric antibody P13B02 (IgG1)
Take B9: in experiment [1], the binding result is on record as “binds”.

B10: P16H05 Fab (Fab, V domains shown)
VH: QVQLQQPGAELVKPGASVKLSCTASGFNIKDNYIHWVKQRPEQGLEWIGSIDPANGNTKYDPKFQGKASITADTSSNTAYLQLSSLTSEDTAVYYCASYFYRYDVGGFDYWGQGTTLTVS
VL: EIVLTQSPALMAASPGEKVTITCSVSSSISSSNLHWYQQKSGTSPKLWIYGTSNLASGVPVRFSGSGSGTSYSLTISSMEAEDAATYYCQQWSSYPHTFGGGTKLEIK
notes: Murine Fab, periplasmic extract
Regarding B10, the binding result (in experiment [2]; with human LAG-3) was “binds” throughout.

B11: P13B02 Fab (Fab, V domains shown)
VH: QVQMKQSGAELVKPGASVKLSCTASGFNIKDTYIHWVKQRPEQGLEWIGEIDPANDNTKYDPKFQGKATITADTSSNTAYLQLSSLTSEDTAVYYCATYYYRYDVGGFDYWGQGTTLTVS
VL: EILLTQSPALMAASPGEKVTITCSVSSSISSSNLHWFQQKSGTSPKLWIYGTSNLASGVPVRFSGSGSGTSYSLTISSMEAEDAATYYCQQWSSYPFTFGSGTKLEIK
notes: as for B10
Turning to B11, the binding result (in experiment [2]; with human LAG-3) was “binds” in each case.

B12: P13B03 Fab (Fab, V domains shown)
VH: EVQLQQSGAELVKPGASVKLSCTASGFNIKDTYIHWVKQRPEQGLEWIGEIDPANGNTKYDPKFQGKATITADTSSNTAYLQLSSLTSEDTAVYYCATYYYRYDVGGFDYWGQGTTLTVS
VL: ENVLTQSPALMAASPGEKVTITCSVSSSISSSNLHWFQQKSGTSPKLWIYGTSNLASGVPVRFSGSGSGTSYSLTISSMEAEDAATYYCQQWSSYPFTFGSGTKLEIK
notes: as for B10
As for B12, the binding result (in experiment [2]; in the experiment with human LAG-3) was “binds” each time.

B13: P13A06 Fab (Fab, V domains shown)
VH: QVQLKQSGAELVKPGASVKLSCTASGFNIKDTYMYWVKQRPEQGLEWIGRIDPANGNTKYDPKFQGKATITADTSSNTVYLQLSSLTSEDTAVFYCVIYSYRYDVGGFDYWGQGTTLTVS
VL: ENVLTQSPALMAASPGEKVTITCSVSSSISSSNLHWYQQKSGTSPKLWIYGTSNLASGVPVRFSGSGSGTSYSLTISSMEAEDAATYYCQQWSSYPHTFGGGTKLEIK
notes: as for B10
For the molecule B13, the binding result (in experiment [2]; in the experiment with human LAG-3) was “binds” in each case.
